# ± gives the uncertainty stated by the source.
# Assay: amyloid nucleation score (Sup35N fusion, yeast selection) (log enrichment); library NNK3; higher = more nucleation; inactive = no reads after selection
# How it was run: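 Three technical output replicates were used for random libraries. Psi-negative yeast expressing peptides of 20 random codons fused to Sup35N were induced with 100 μM copper sulfate for 24 hours and grown 7 days at 30°C on medium lacking adenine and uracil, and input and output plasmid inserts were Illumina-sequenced, excluding sequences with under 100 input reads. The nucleation score is the DiMSum log enrichment of output over input reads, centred on the mode score of non-aggregating sequences.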
row,Substance,amyloid nucleation score
1,HVLSVQTLYLFCKGLKESGT,0.809 ± 0.16
2,KITLDYRLGHVDRQTTISVK,inactive
3,TLFEMYNVTFIMKNGLQES,1.96 ± 0.062
4,GLYSDNSVYTLQMFIEGAHH,0.4 ± 0.3
5,PYMWGFIKRWNRNCAGSFAL,inactive
6,KNTGMGDTVSFRLVSAFEHI,inactive
7,LKFFVYLLNLYEDFLPVRFS,inactive
8,VFSDHVLSF,inactive
9,NCRVCCRYVNSSPDV,-0.974 ± 1.7
10,KPKELSAHLNATM,inactive
11,ATDKV,inactive
12,VKLFKVPLVLSMRL,inactive
13,RGWDVWAVHSEFYCLKKLIV,inactive
14,MFWEGVTNSEMATKLHDKCI,inactive
15,SNHIDAVNHDGHSHPYHTTR,inactive
16,FHSAL,inactive
17,VFECLTFF,-0.872 ± 1
18,TFDPKL,inactive
19,DLWHPMSY,-0.466 ± 0.84
20,GNSSII,inactive
21,LGVSLKGNYAYWFTLIWSDV,inactive
22,IYVDVNSDP,inactive
23,NLRWV,0.478 ± 0.25

row,Substance,amyloid nucleation score
1,TCECDGFLFFRRCFNWG,inactive
2,GMFPVVRNGRWELRCPAVKW,inactive
3,GNALSIEVDGSIK,inactive
4,ICSGTSH,-0.268 ± 0.6
5,SFGIGSI,inactive
6,IIYPLMKAWISDMLMVISIS,inactive
7,ILIWRSGCYWTSPTEGVFRF,0.572 ± 0.2
8,FSQIPRYISNTKRWLWDYVN,inactive
9,SPLLNPGPSWF,inactive
10,ILQKQVTTRLSINSENLHL,0.256 ± 0.21
11,TRLCFIAVPLSFFMVWDTSR,inactive
12,HDTPFMCV,inactive
13,VSMCNLNGVLPLNLFRLGLC,inactive
14,IGFGSWFSKVSPNVEFVGAL,inactive
15,ANCINRV,inactive
16,WIWLGCPSVMSEEYMSDFHI,inactive
17,WPSYSRLQTDFRGTGFFFRG,inactive
18,NDVSRNLSMFNY,inactive
19,PKTIRDVYVDGEEHVHFRWR,inactive
20,LSCVLTVGTKTLFRAQMTQV,inactive
21,LDVYTVTGRDW,inactive
22,DRNCRLIHYFIQ,inactive
23,RGQCVPDAGQVRNGTCMRV,inactive

row,Substance,amyloid nucleation score
1,NNLTKM,inactive
2,WFDNRGLSFPYVYLLREHGK,1.13 ± 0.11
3,GVIILSLTAKCQAMDSVRTL,0.841 ± 0.14
4,DGHMDR,inactive
5,WPAAQVNQIHYCVGLNNYTW,inactive
6,TAYFFSVARVMVDLTTALLA,0.161 ± 0.33
7,GAHFWKNGVGRWLPRNC,inactive
8,DVEFI,inactive
9,KSYLFWSLI,inactive
10,RTNILVGRIR,inactive
11,AYLIRIGVIRLFLTLCCG,inactive
12,EMNLLFIVDAIELCPVLQAR,inactive
13,TCRPFIT,inactive
14,GPPLNYEVT,inactive
15,WRVSNKIIPIIRWQWMDPCL,inactive
16,LSRYSRSTIILEHWCDTDWY,0.812 ± 0.24
17,QQLRNWFHLDPTLARKPKFL,inactive
18,AIGRTCGKYMYSFGGLHSSH,inactive
19,RSTWFSFFRRTAHWKKALRP,inactive
20,CCFHLFTYCKGKARYTLWSV,inactive
21,EKNNNRDGTDAVVIGNHKAG,inactive
22,AWSDPSDQQPEQLRVVVDFL,inactive
23,EGKARGDH,inactive

row,Substance,amyloid nucleation score
1,ATIGRVRGLKDPHLYQCAFM,inactive
2,RMGIASIYAIVLQPMIRLWL,inactive
3,DFDAFRFIHVVSWFGFTIYP,inactive
4,FVDLIRLCMCFVRMSQSLRT,inactive
5,SHHSHSNDVALGSSISF,inactive
6,GGSFKVDNPKVTRAWISFFS,0.802 ± 0.13
7,SAVYMVSGIGNNSHTSAFIR,0.614 ± 0.17
8,DSFILLDTSTHTNTTAYGKC,inactive
9,HDHFWLYCMCNRTSGYLESF,inactive
10,NSVPRGMAFFLNAFFSLIYY,inactive
11,WHAFRLMWDSNMLLLRGSVV,inactive
12,HVVGQDIRV,inactive
13,ALARELIFLLCMNVRLMGFK,inactive
14,FCLFLSCGDKSILGA,inactive
15,VSEFRRVYFSAQFSRVGNSC,inactive
16,VRGIAIACWSQFCNWRICCR,-0.231 ± 0.82
17,RRVTFGGMAHSERKRYCLFT,inactive
18,DGDIVDSG,-0.616 ± 0.8
19,WNNYI,inactive
20,ISTRPSM,inactive
21,LAWCVLSKPRDRYSGVTSTL,inactive
22,PLFSYLRHSTGCTFAIPNSE,inactive
23,NSVVF,inactive

row,Substance,amyloid nucleation score
1,ADLATYLTDLTERDAILSPP,0.424 ± 0.39
2,YYFRRWGHS,inactive
3,EIYCFRCVVIGIYYLVTIID,inactive
4,PVRSR,inactive
5,RAWNWWGFVTFPERLMCSHT,inactive
6,SALFMLPYALTRMVYANLLQ,-0.004 ± 0.75
7,LQCLNQVRSRLVVLLLIFNV,inactive
8,AVYQLDMCDLVMVSLDGTVR,inactive
9,TNTNTCL,inactive
10,GYSVYYANVSVRGLKSRDHC,inactive
11,CFDCTVF,inactive
12,WIRSNATFNATGVKFSSTCH,inactive
13,IRLFHEAIKGDLC,inactive
14,RFLLHLML,-0.4 ± 0.45
15,GVLSYNMIHT,inactive
16,RSMYR,inactive
17,MSLWCTITGECKGDGWY,inactive
18,KLTHY,inactive
19,YLDLFLWIREMLYYTGSLRV,inactive
20,VACRVVGNSSVWVFRRHVEN,inactive
21,YRILYGWSFMIRLILDVQRE,inactive
22,AVINVILIIVSECRNSN,1.9 ± 0.075
23,FYLKLMSLVMSMDIMLTSLC,inactive

row,Substance,amyloid nucleation score
1,LNQVSLLVGNMRWDCDIKSA,inactive
2,VNVIDLFGFQPSNRLTGNVR,inactive
3,AAAMVKAMIDVITGKIPVAE,inactive
4,YKYDRFWKVFHQGRTLVAGG,inactive
5,YSPAK,inactive
6,SSYLLRLLIFTSSIRRMFGS,inactive
7,INWYIHFRPLWQGFR,inactive
8,NWFRMFIGFNSCAIRRIIWD,inactive
9,DNLFSETSYVVRFARFL,inactive
10,CWLSWYFATKLGAYWELSNG,inactive
11,VARPCFRERNHSPI,inactive
12,DSSSDGSLTYDRGRSRSLFE,inactive
13,LYSCMFIMLFQNYFLPIGVA,inactive
14,QQPTYKYDDDKNFDSYWLAN,inactive
15,RACCLFQGDWQERLDSISFA,inactive
16,HFETNTVFQVFEICIVSCCY,2.34 ± 0.067
17,LCRNWVR,inactive
18,NGWLVMLYIKLTGFFP,inactive
19,LICNCHPRESSDPTFLCGLG,inactive
20,FHLYCTIITLACCIMVWNCQ,1.33 ± 0.14
21,HNISAIYDRNRF,inactive
22,FRNSGTNACIL,inactive
23,ISSAYCGHIGLAAINRLILT,inactive

row,Substance,amyloid nucleation score
1,CKMRYEDESWFKWVVDLSFN,inactive
2,ENSIVADTGPAV,inactive
3,DGRSFAVDAIVYCHLYR,0.758 ± 0.11
4,YFTNDQNKQGFHWMGYMSHI,inactive
5,YMNSTFQMFD,0.829 ± 0.19
6,LYLQVALRTWLLSRWDLDDI,inactive
7,YVTHMQLGYLSVMCMEVKRG,1.35 ± 0.085
8,KLVYFRVFKSRFRSRVGGMV,inactive
9,IMPRPIKSRLNKNFLWAVVC,inactive
10,RTAMVVDSYAKSFMSQASVL,inactive
11,GASMLGAIKGYSTSERISLD,0.175 ± 0.45
12,RHRLAHMRNKWRGQVHCPKG,inactive
13,SCMGFVRQANIVG,inactive
14,IMVVQYTWDWPGCCWIRWYL,inactive
15,RCDCEFYTLKWQCEVYYRGR,inactive
16,DRTTSVGPYSAVLGFMCDWW,inactive
17,GFTLHHLTACVIGTCVFFSP,1.93 ± 0.1
18,MTVSVITAMGFTIGFFADNQ,0.494 ± 0.26
19,LFADWQG,inactive
20,TVAMR,inactive
21,LVCGPI,inactive
22,CCWYPYEYIINYASVTSQFP,1.56 ± 0.066
23,QYLSRCLTWSYVTVKSLRSN,inactive

# — the supplement of paper PMC12042874
